Laboratory results as given in the supplement of paper PMC7125110.
± gives the standard error. Variants at the floor of the assay were thinned out.

B1: glmS ribozyme (parent)
chain: AUAAAAGCGCCAGAACUACAGAAAUGUAGUUGACGAGGAGGAGGUUUAUCGAAUUUUCGGCGGAUGCCUCCAAA

Experiments:
Settings in all cases: with glucosamine-6-phosphate
[1] = variants of: B1; test: self-cleavage kobs at 40 uM GlcN6P; higher = faster cleavage; RNA array
Outline: (§1)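 Using a hybridised Cy3 probe at 37 °C, barcoded ribozyme variants transcribed in situ by E. coli RNA polymerase on sequenced MiSeq chips were monitored across tiles imaged over ~14 h. The flow contained glucosamine-6-phosphate from 40 μM to 10 mM in HEPES/KCl/Mg(OAc)2 buffer. Signals were normalised to baseline and to non-cleaving reference variants before per-tile medians were fit to one- or two-exponential decays to yield kobs. Weighted Michaelis–Menten fits across concentrations gave kcat and KM.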

[2] = variants of: B1; test: self-cleavage kobs at 640 uM GlcN6P; higher = faster cleavage; RNA array
Outline: as §1

[3] = variants of: B1; test: self-cleavage kobs at 2500 uM GlcN6P; higher = faster cleavage; RNA array
Outline: as §1

[4] = variants of: B1; test: self-cleavage kobs at 10000 uM GlcN6P; higher = faster cleavage; RNA array
Outline: as §1

[5] = variants of: B1; test: self-cleavage kobs at 160 uM GlcN6P; higher = faster cleavage; RNA array
Outline: as §1

Row | Variant | self-cleavage kobs at 40 uM GlcN6P [1] [s⁻¹] | self-cleavage kobs at 640 uM GlcN6P [2] [s⁻¹] | self-cleavage kobs at 2500 uM GlcN6P [3] [s⁻¹] | self-cleavage kobs at 10000 uM GlcN6P [4] [s⁻¹] | self-cleavage kobs at 160 uM GlcN6P [5] [s⁻¹]
1 | AUAAAAGCGCGAGAACUACAGAAAUGUAGUUGACGAGCAGGAGGUUUAUCGAAUUUUCGGCGGAUGCCUCCAAA | < 1e-05 | < 1e-05 | < 1e-05 |  | 
2 | AUAAAAGCGUCAGAACUACAGAAAUGUAGUUGACGAGGAGGAGGUUUAUCGAAUUUGCGGCGGAUGCCUCCAAA | < 1e-05 |  |  |  | 
3 | AUAAAAGCGUCAGAACUACAGAAAUGUAGUUGACGAGGAGGAGGUUUAUCGAAUUUACGGCGGAUGCCUCCAAA | < 1e-05 |  |  | < 1e-05 | 
4 | AUAAAAGCGCUAGAAAUACAGAAAUGUAGUUGACGAGGAGGAGCUUUAUCGAAUUUUCGGCGGAUGCCUCCAAA | < 1e-05 | < 1e-05 |  |  | 
5 | AUAAAAGCGCGAGAACUACAGAAAUGUAGUUGACGAGGGGGAGGUUUAUCGAAUUUUCGGCGUAUGCCUCCAAA | < 1e-05 |  | < 1e-05 | < 1e-05 | 
6 | AUAAAAGCGCUAGAACUACAGAAAUGUAGUUGACGAGGAGGAGGUUUAUGGAAUUUUCGGCGGAUGCCUCCAAA | 0.000107 ± 2.2e-05 | 0.000371 ± 9e-05 | 0.000104 ± 2.1e-05 |  | 0.000271 ± 6.5e-05
7 | AUAAAAGCGCGAGAACUACAGAAAUGUAGUUGACGAGGAGGAGGAUUAUCGAAUUUUCGGCGGAUGCCUCCAAA | < 1e-05 |  |  |  | 
8 | AUAAAAGCGCAAGAACUACAGAAAUGUAGUUGACGAGGAGGAGGUUUAUCUGAUUUACGGCGGAUCCCUACAAA | 5.04e-05 ± 1.9e-05 |  |  | 5e-05 ± 1.4e-05 | 
9 | AUAAAAGCGCGAGAACUACAGAAAUGUAGUUGACGAGGAGGAGGUUUAUCGAAUCUUCGGCGGAUGCCUCCAAA | < 1e-05 | < 1e-05 |  |  | < 1e-05
10 | AUAAAAGCGCGAGAACUACAGAAAUGUAGUUUACGAGGAGGAGGUUUAUCGAAUUUUCGGCGGAUGCCUCCAAA | < 1e-05 |  |  | < 1e-05 | < 1e-05
11 | AUAAAAGCGUCAGAACUACAGAAAUGUAGUUGACGAGGAGGAGGUAUAACGAAUUUUCGGCGGACGCGUCCAAA | < 1e-05 |  |  | < 1e-05 | 
12 | AUAAAAGCGCAAGAACUACAGAAAUGUAGUUGACGAGGAGUAGGUUUAUCGAAUUUUCGGCGGAUGCCUCCAAA | < 1e-05 | < 1e-05 | < 1e-05 |  | < 1e-05
13 | AUAAAAGCGCGAGAACUACAGAAAUGUAGUUGACGAGGAGGAGGUUUAUCGAAUUUUAGGCGGGUGCCUCCAAA | < 1e-05 |  |  |  | 
14 | AUAAAAGCGCGAGAACUACAGAAAUGUAGUUGACGAGGAGGAGUUUUCUAGAAUUUUCUGCCGAUGCCUCCAAA | < 1e-05 |  |  | < 1e-05 | 
15 | AUAAAAGCGCAAGAACUACAGAAAUGUAGUUGACGAGGAGGAGGCUUAUCGAAUUUUCGGCGGAUGCCUCCAAA | < 1e-05 | < 1e-05 |  |  | 
16 | AUAAAAGCGCAAGUGCUACAGAAAUGUAAUUGACGAGGAGGAGUUUUAUCGAAUUUUCGGAGGAUGCCUCCAAA | < 1e-05 | < 1e-05 | < 1e-05 | < 1e-05 | 
17 | AUAAAAGCGCGAGAACUACAGAAAUGUAGUUGAAGAGGAGGAGGUUUAUCGAAUUUUCGGCGGAUGCCUCCAAA | < 1e-05 |  | < 1e-05 | < 1e-05 | < 1e-05
18 | AUAAAAGCGCGAGAACUACAGAAAUGUAGUUGACGAGGAGGAGGUUUGUCGAAUUUUCGGCGGAUGCCUCCAAA | < 1e-05 | < 1e-05 | < 1e-05 | < 1e-05 | < 1e-05
19 | AUAAAAGCGCUAGAACUACAGAAAUGUAGUUGACGGGGAGGAGGUUUAUGGAAUUUUCGGCGGAUGCCUCCAAA | 8.31e-05 ± 2.8e-05 | 0.000352 ± 0.00014 |  | 4.94e-05 ± 1.5e-05 | 
20 | AUAAAAGCGCAAGAACUACAGAAAUGUAGUUGACGAGGAAGAGGUUUAUCGAAUUUUCGGCGGAUGCCUCCAAA | < 1e-05 |  |  | 3.6e-05 ± 1.4e-05 | < 1e-05
21 | AUAAAAGCGCGAGAACUACAGAAAUGUAGUUGACGAGGAGGAGGUUUUUCGAAUUUUCGGCGCAUGCCUCCAAA | < 1e-05 |  |  | < 1e-05 | 
22 | AUAAAAGCGCUAGAACUACAGAAAUGUAGUUGCCGAGGAGGAGGUUUAUCGAUUUUGCGUCGGAUGCCUCCAAA | < 1e-05 |  |  | < 1e-05 | 
23 | AUAAAAGCGCUUGAACUACAGAAAUGUAGUUGAAGAGGAGGAGGUUUAUCGAAUUUUCGGCGGAUCCCUCCAAA | < 1e-05 | < 1e-05 | < 1e-05 | < 1e-05 | 
24 | AUAAAAGCGCACGAACUACAGAAAUGUAGUUUACGAGGAGGAGGUUUAUGGAAUUUUCGGCGGAUGCCUCCAAA | 0.000123 ± 3.9e-05 |  |  | 0.000269 ± 6.1e-05 | 
25 | AUAAAAGCGCAAGAACUACAGAAAUGUAGUUGACGAGGGGGAGGAUUAUCGUAUUUUCGGCGGAUGCCUCCAAA | < 1e-05 |  |  |  | 
26 | AUAAAAGCGCGAGAACUACAGAAAUGUAGUUGACGAGGAGGAGGUUUAUCGAAUUUUCGUCGGAUGCCUCCAAA | < 1e-05 | < 1e-05 |  | < 1e-05 | < 1e-05
27 | AUAAAAGCGCGAGAACUACAGAAAUGUAGUUGACGAGGAGGAGGUUUAUCGAAUUUUCGGCCGGUGCGUCCAAA | < 1e-05 |  |  | < 1e-05 | 
28 | AUAAAAGCGCGAGAACUACAGAAAUGUAGUUGACGAGGAGGAGGUUUAUCGAAUUUUUUGCGGAUGCCUCCAAA | < 1e-05 |  |  | < 1e-05 | 
29 | AUAAAAGCGCGAGAACUACAGAAAUGUAGUUGACGAGGAGGAGGUUUAUAGUAUUUUCGGCGAAUGCCUCCAAA | < 1e-05 |  |  | < 1e-05 | 
30 | AUAAAAGCGCGAGGACUACAGAAAUGUAGUUGACGAGGAGGAGGUUUAUCGAAUUUUCGGCGUAUGCCUACAAA | 9.38e-05 ± 2.9e-05 |  | 0.000123 ± 5.4e-05 |  | 
